Earlier results on one substance are cited in article PMC4456024.

The data set has as its target cTnI147-163 (Homo sapiens). Briefly: NMR titration.

In the case of cTnC (cNTnC) 1-89 (from UniProt P63316), the Kd was 150 µM.

As a reminder, the Kd is the concentration at which binding is half-saturated.
